From patent US20160159865A1 (CHILDREN S HOSPITAL AND RESEARCH CENTER AT OAKLAND, published 2016)

Target: T1, human factor H (human, UniProt P08603 19-1231)
T1 construct: Purified human factor H was used in the ELISA; also called fH; human fH
Experiment: ELISA, fHbp (2 µg/ml) on plate, human factor H titrated

T1 sequence (P08603 19-1231 Y402H/T493R limits assumed): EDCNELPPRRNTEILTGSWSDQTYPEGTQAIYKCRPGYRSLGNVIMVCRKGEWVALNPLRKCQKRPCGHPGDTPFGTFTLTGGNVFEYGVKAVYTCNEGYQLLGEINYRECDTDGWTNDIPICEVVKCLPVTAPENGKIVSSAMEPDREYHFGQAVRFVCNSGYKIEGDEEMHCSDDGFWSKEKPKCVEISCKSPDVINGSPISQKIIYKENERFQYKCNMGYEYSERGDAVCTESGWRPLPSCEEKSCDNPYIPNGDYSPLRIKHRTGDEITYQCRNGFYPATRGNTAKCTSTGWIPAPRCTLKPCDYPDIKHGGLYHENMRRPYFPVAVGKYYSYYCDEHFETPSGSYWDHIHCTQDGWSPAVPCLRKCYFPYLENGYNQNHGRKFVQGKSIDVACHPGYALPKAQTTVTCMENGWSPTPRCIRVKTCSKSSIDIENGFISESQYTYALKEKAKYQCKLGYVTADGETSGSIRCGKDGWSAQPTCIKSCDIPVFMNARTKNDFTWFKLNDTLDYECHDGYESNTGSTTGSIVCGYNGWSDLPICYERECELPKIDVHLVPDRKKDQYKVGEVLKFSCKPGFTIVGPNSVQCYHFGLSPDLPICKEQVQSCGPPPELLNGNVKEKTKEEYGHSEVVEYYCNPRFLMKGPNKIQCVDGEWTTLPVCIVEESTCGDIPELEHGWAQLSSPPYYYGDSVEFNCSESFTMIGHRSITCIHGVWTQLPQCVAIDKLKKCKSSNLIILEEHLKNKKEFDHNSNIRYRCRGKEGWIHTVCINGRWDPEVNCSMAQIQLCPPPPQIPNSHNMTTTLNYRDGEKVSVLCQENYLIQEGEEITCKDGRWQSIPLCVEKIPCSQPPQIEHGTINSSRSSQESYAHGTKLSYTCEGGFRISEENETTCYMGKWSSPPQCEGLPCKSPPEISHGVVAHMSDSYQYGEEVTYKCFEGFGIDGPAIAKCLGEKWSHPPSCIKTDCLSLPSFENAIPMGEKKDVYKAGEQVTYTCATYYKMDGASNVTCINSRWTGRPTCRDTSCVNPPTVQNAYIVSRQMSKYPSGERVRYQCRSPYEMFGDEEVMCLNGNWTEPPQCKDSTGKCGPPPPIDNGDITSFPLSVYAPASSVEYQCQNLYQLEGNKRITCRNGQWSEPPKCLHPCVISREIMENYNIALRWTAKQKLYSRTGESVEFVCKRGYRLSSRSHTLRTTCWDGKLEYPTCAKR

B1: fHbp ID 79 H223R mutant (other)
chain: CSSGGGGSGSGGVAADIGTGLADALTTPLDHKDKGLKSLTLEDSIPQNGTLTLSAQGAEKTFKAGDKDNSLNTGKLKNDKISRFDFVQKIEVDGQTITLASGEFQIYKQDHSAVVALQIEKINNPDKIDSLINQRSFLVSGLGGEHTAFNQLPGGKAEYHGKAFSSDDAGGKLTYTIDFAAKQGHGKIEHLKTPEQNVELASAELKADEKSHAVILGDTRYGSEEKGTYRLALFGDRAQEIAGSATVKIGEKVHEIGIAGKQ
notes: Purified recombinant mutant
  binding result: no binding (tested: human factor H 0.0012 to 20 µg/ml)
